Test results from article PMC3089606, “The E. coli Anti-Sigma Factor Rsd: Studies on the Specificity and Regulation of Its Expression” (PLoS ONE, 2011).
Each block holds one molecule with its values, some of them ahead of it.

Assays:
[1] = system: RNA polymerase holoenzyme Esigma38 (Escherichia coli); assay: EMSA; settings: 1 uM Rsd; binding buffer, salt, pH and temperature not given in the material; heparin competitor in NAP footprints
[2] = target: T1, RNA polymerase sigma factor σ^70 (E. coli, UniProt P00579 1-613); assay: cross-linking; 3 µg Rsd with 3 µg σ^70, σ^38 or Rsd (or each protein alone), 30 minutes in 15 µl 50 mM HEPES pH 7.4, 5% glycerol, 0.1 mM EDTA, 0.1 mM DTT; 0.02% glutaraldehyde, room temperature 30 minutes; SDS gel, Coomassie staining; settings: both partners purified
T1 construct: RNA polymerase sigma factor σ^70 (RpoD), E. coli; also called free σ^70; sigma D
T1 sequence (P00579 whole entry): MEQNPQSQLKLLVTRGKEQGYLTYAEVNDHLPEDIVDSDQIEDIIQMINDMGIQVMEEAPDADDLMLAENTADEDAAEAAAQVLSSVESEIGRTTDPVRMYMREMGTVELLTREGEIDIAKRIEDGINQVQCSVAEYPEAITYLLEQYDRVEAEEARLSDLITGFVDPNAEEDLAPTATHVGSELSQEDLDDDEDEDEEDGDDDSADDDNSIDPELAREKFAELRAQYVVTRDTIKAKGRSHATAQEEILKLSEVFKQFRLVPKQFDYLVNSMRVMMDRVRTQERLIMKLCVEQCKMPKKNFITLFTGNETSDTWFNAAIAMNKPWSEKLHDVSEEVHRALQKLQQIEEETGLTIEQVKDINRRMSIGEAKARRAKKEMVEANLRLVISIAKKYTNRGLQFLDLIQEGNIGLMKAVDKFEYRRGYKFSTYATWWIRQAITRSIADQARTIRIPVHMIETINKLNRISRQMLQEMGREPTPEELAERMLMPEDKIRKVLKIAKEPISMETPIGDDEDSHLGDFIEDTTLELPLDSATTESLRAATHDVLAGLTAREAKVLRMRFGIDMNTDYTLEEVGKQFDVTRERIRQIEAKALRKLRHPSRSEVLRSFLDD

[3] = target: the molecule itself; assay: as above
[4] = target: T1, RNA polymerase sigma factor σ^70; assay: pull-down; biotinylated Rsd incubated with the protein of interest (molar ratios 1:1 or 1:3) for 1 hour in TGED buffer on ice, held on Streptavidine MicroBeads column, four washes, elution with SDS buffer; SDS gel, Coomassie and silver staining; settings: both partners purified
[5] = target: T2, RNA polymerase sigma factor σ^38 (E. coli, UniProt P13445 1-330); assay: as above; settings: both partners purified
T2 construct: stationary phase-specific sigma factor σ^38 (RpoS), E. coli; also called σ^s; RpoS
T2 sequence (P13445 whole entry): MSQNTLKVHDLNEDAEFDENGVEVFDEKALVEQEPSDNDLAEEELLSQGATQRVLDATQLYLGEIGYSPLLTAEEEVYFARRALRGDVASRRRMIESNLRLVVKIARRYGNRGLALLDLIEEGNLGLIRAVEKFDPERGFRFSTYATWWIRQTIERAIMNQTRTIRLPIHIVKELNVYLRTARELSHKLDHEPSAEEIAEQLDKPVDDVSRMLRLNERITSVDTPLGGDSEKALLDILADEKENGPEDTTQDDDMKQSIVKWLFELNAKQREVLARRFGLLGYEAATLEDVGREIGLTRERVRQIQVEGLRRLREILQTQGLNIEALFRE

Molecule: fic promoter fragment
binding signal (% of complex remaining) [1]: 50

binding result [2]: binds
B1: Rsd (regulator of sigma D), native protein (natural protein, E. coli, UniProt P0AFX4 1-158, looked up)
chain: MLNQLDNLTERVRGSNKLVDRWLHVRKHLLVAYYNLVGIKPGKESYMRLNEKALDDFCQSLVDYLSAGHFSIYERILHKLEGNGQLARAAKIWPQLEANTQQIMDYYDSSLETAIDHDNYLEFQQVLSDIGEALEARFVLEDKLILLVLDAARVKHPA
notes: Rsd (regulator of sigma D), E. coli; No tag is mentioned; also called native Rsd; anti-sigma factor Rsd; source: E. coli BL21DE3pLysS/pUC18-Rsd, purified (DEAE-Sephadex A25, P11-phosphocellulose, NH4SO4 precipitation)
stoichiometry N [3]: 2

binding result [4]: binds | binding result [5]: binds
B2: Biotinylated Rsd (natural protein, E. coli, UniProt P0AFX4 1-158, looked up)
chain: B1 chain
modifications: biotin (9 fold excess of Biotinyl-N-hydroxy-succinimide; modified residues not stated)
notes: Rsd (regulator of sigma D), E. coli; Held on Streptavidine MicroBeads through the biotin; also called Biotinylated-Rsd protein; immobilized Rsd; source: E. coli BL21DE3pLysS/pUC18-Rsd, purified, then biotinylated with Biotinyl-N-hydroxy-succinimide
